This is an account of results in PMC8219681, “Inhibition of MRN activity by a telomere protein motif” (Nature Communications, 2021).

Data set [1] deals with T1, MBP-Rif2-min (S. cerevisiae Rif2 F8E P10N), Q06208.
T1 chain: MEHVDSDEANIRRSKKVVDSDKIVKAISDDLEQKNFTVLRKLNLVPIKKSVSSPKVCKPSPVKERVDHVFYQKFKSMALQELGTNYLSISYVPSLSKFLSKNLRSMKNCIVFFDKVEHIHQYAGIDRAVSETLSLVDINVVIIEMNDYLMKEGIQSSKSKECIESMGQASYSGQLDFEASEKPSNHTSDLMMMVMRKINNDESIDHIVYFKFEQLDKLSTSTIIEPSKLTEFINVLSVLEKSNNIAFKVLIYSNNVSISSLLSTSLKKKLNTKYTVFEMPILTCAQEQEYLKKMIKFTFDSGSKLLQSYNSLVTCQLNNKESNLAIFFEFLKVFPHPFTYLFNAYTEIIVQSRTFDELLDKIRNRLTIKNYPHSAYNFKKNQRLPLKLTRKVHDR
As to the kind of experiment: pull-down (amylose-immobilized MBP-Rif2-min bait, Western blot with anti-Rad50 antibody, quantified). The following applies: chain shown with the change; three independent blots; mean with SEM; parent: est. 100; read off a plot. On the technique in general: Immunoblotting shows a protein as a band on a membrane.

The target of data set [2] is T2, Rif2 (Saccharomyces cerevisiae, UniProt Q06208 1-395).
T2 sequence: T1 chain with E8F, N10P
Nature of the data set: EMSA; 5 mM Mg2+, 1 mM Mn2+, 1 mM ATP; 25 mM Tris-acetate pH 7.5, 1 mM DTT, 5 mM Mg acetate, 1 mM Mn acetate, 0.25 mg/ml BSA, 1 mM PEP, 1 mM ATP, 80 U/ml pyruvate kinase, 1 nM DNA, 30 C 30 min; 6% PAGE in TAE. As to conditions: protein: recombinant; tags: C-terminal His (N-terminal MBP cleaved with PreScission); label: 32P; blunt.

Data set [3] has as its target T3, Rif2-min (Saccharomyces cerevisiae, UniProt Q06208 1-395, F8E;P10N).
T3 sequence: T1 chain
The description is as above. The following applies: protein: recombinant; tags: C-terminal His (N-terminal MBP cleaved with PreScission); label: 32P; blunt.

Numbering of substitutions follows the chain as printed. Names and notes keep the numbering of the source.

B1: m3; m1 Rad50:K81I; Rif2:F8E; Rif2:P10N (protein)
chain: MSAIYKLSIQGIRSFDSNDRETIEFGKPLTLIVGMNGSGKTTIIECLKYATTGDLPPNSKGGVFIHDPKITGEKDIRAQVILAFTSANGLNMIVTRNIQLLMKKTTTTFKTLEGQLVAINNSGDRSTLSTRSLELDAQVPLYLGVPKAILEYVIFCHQEDSLWPLSEPSNLKKKFDEIFQAMKFTKALDNLKSIKKDMSVDIKLLKQSVEHLKLDKDRSKAMKLNIHQLQTKIDQYNEEVSEIESQLNEITEKSDKLFKSNQDFQKILSKVENLKNTKLSISDQVKRLSNSIDILDLSKPDLQNLLANFSKVLMDKNNQLRDLETDISSLKDRQSSLQSLSNSLIRRQGELEAGKETYEKNRNHLSSLKEAFQHKFQGLSNIENSDMAQVNHEMSQFKAFISQDLTDTIDQFAKDIQLKETNLSDLIKSITVDSQNLEYNKKDRSKLIHDSEELAEKLKSFKSLSTQDSLNHELENLKTYKEKLQSWESENIIPKLNQKIEEKNNEMIILENQIEKFQDRIMKTNQQADLYAKLGLIKKSINTKLDELQKITEKLQNDSRIRQVFPLTQEFQRADLEMDFQKLFINMQKNIAINNKKMHELDRRYTNALYNLNTIEKDLQDNQKSKEKVIQLLSENLPEDCTIDEYNDVLEETELSYKTALENLKMHQTTLEFNRKALEIAERDSCCYLCSRKFENESFKSKLLQELKTKTDANFEKTLKDTVQNEKEYLHSLRLLEKHIITLNSINEKIDNSQKCLEKAKEETKTSKSKLDELEVDSTKLKDEKELAESEIRPLIEKFTYLEKELKDLENSSKTISEELSIYNTSEDGIQTVDELRDQQRKMNDSLRELRKTISDLQMEKDEKVRENSRMINLIKEKELTVSEIESSLTQKQNIDDSIRSKRENINDIDSRVKELEARIISLKNKKDEAQSVLDKVKNERDIQVRNKQKTVADINRLIDRFQTIYNEVVDFEAKGFDELQTTIKELELNKAQMLELKEQLDLKSNEVNEEKRKLADSNNEEKNLKQNLELIELKSQLQHIESEISRLDVQNAEAERDKYQEESLRLRTRFEKLSSENAGKLGEMKQLQNQIDSLTHQLRTDYKDIEKNYHKEWVELQTRSFVTDDIDVYSKALDSAIMKYHGLKMQDINRIIDELWKRTYSGTDIDTIKIRSDEVSSTVKGKSYNYRVVMYKQDVELDMRGRCSAGQKVLASIIIRLALSETFGANCGVIALDEPTTNLDEENIESLAKSLHNIINMRRHQKNFQLIVITHDEKFLGHMNAAAFTDHFFKVKRDDRQKSQIEWVDINRVTY
Regarding B1, the percent of parent (Relative value) in data set [1] was determined as 14.

B2: PC1253C/PC1253B 50 bp dsDNA (dsDNA)
DNA 1: AACGTCATAGACGATTACATTGCTAGGACATCTTTGCCCACGTTGACCCA
DNA 2: TGGGTCAACGTGGGCAAAGATGTCCTAGCAATGTAATCGTCTATGACGTT
modifications: 3'-terminal biotin (stated for the nuclease substrate; strand(s) ambiguous; streptavidin not mentioned for EMSA)
For the molecule B2, the binding result in data set [2] and in data set [3] was “binds” each time.
